Results as given in PMC12290104, “PEAK1 maintains tight junctions in intestinal epithelial cells and resists colitis by inhibiting autophagy-mediated ZO-1 degradation” (Nature Communications, 2025).

B1: FC-tagged PEAK1^WT (Fc fusion, human, UniProt Q9H792 1-1746, looked up)
chain: MSACNTFTEHVWKPGECKNCFKPKSLHQLPPDPEKAPITHGNVKTNANHSNNHRIRNTGNFRPPVAKKPTIAVKPTMIVADGQSICGELSIQEHCENKPVIIGWNRNRAALSQKPLNNNNEDDEGISHVPKPYGNNDSAKKMSDNNNGLTEVLKEIAGLDTAPQIRGNETNSRETFLGRINDCYKRSLERKLPPSCMIGGIKETQGKHVILSGSTEVISNEGGRFCYPEFSSGEESEEDVLFSNMEEEHESWDESDEELLAMEIRMRGQPRFANFRANTLSPVRFFVDKKWNTIPLRNKSLQRICAVDYDDSYDEILNGYEENSVVSYGQGSIQSMVSSDSTSPDSSLTEESRSETASSLSQKICNGGLSPGNPGDSKDMKEIEPNYESPSSNNQDKDSSQASKSSIKVPETHKAVLALRLEEKDGKIAVQTEKEESKASTDVAGQAVTINLVPTEEQAKPYRVVNLEQPLCKPYTVVDVSAAMASEHLEGPVNSPKTKSSSSTPNSPVTSSSLTPGQISAHFQKSSAIRYQEVWTSSTSPRQKIPKVELITSGTGPNVPPRKNCHKSAPTSPTATNISSKTIPVKSPNLSEIKFNSYNNAGMPPFPIIIHDEPTYARSSKNAIKVPIVINPNAYDNLAIYKSFLGTSGELSVKEKTTSVISHTYEEIETESKVPDNTTSKTTDCLQTKGFSNSTEHKRGSVAQKVQEFNNCLNRGQSSPQRSYSSSHSSPAKIQRATQEPVAKIEGTQESQMVGSSSTREKASTVLSQIVASIQPPQSPPETPQSGPKACSVEELYAIPPDADVAKSTPKSTPVRPKSLFTSQPSGEAEAPQTTDSPTTKVQKDPSIKPVTPSPSKLVTSPQSEPPAPFPPPRSTSSPYHAGNLLQRHFTNWTKPTSPTRSTEAESVLHSEGSRRAADAKPKRWISFKSFFRRRKTDEEDDKEKEREKGKLVGLDGTVIHMLPPPPVQRHHWFTEAKGESSEKPAIVFMYRCDPAQGQLSVDQSKARTDQAAVMEKGRAENALLQDSEKKRSHSSPSQIPKKILSHMTHEVTEDFSPRDPRTVVGKQDGRGCTSVTTALSLPELEREDGKEDISDPMDPNPCSATYSNLGQSRAAMIPPKQPRQPKGAVDDAIAFGGKTDQEAPNASQPTPPPLPKKMIIRANTEPISKDLQKSMESSLCVMANPTYDIDPNWDASSAGSSISYELKGLDIESYDSLERPLRKERPVPSAANSISSLTTLSIKDRFSNSMESLSSRRGPSCRQGRGIQKPQRQALYRGLENREEVVGKIRSLHTDALKKLAVKCEDLFMAGQKDQLRFGVDSWSDFRLTSDKPCCEAGDAVYYTASYAKDPLNNYAVKICKSKAKESQQYYHSLAVRQSLAVHFNIQQDCGHFLAEVPNRLLPWEDPDDPEKDEDDMEETEEDAKGETDGKNPKPCSEAASSQKENQGVMSKKQRSHVVVITREVPCLTVADFVRDSLAQHGKSPDLYERQVCLLLLQLCSGLEHLKPYHVTHCDLRLENLLLVHYQPGGTAQGFGPAEPSPTSSYPTRLIVSNFSQAKQKSHLVDPEILRDQSRLAPEIITATQYKKCDEFQTGILIYEMLHLPNPFDENPELKEREYTRADLPRIPFRSPYSRGLQQLASCLLNPNPSERILISDAKGILQCLLWGPREDLFQTFTACPSLVQRNTLLQNWLDIKRTLLMIKFAEKSLDREGGISLEDWLCAQYLAFATTDSLSCIVKILQHR
notes: PEAK1, human cDNA cloned into pTriEx-FC; also called FC-PEAK1; FC-PEAK1^WT; source: HEK293T, transfected, in lysate; also purified from HEK293T (protein A sepharose, glycine pH 2.5 elution)

How the values were obtained:
ZO-1 = ZO-1 (UniProt Q07157); assay: co-IP of FC-PEAK1, ZO-1 blot; conditions: reference: FC-PEAK1 wild type; sites Y724
GFP-tagged ZO-1 = target: T1, GFP-tagged ZO-1 (human, UniProt Q07157 1-1748); assay: pull-down; 10 μg FC-tagged PEAK1^WT or PEAK1^Y724F purified from HEK293T held on Protein A Sepharose (blocked with 10% FBS); GFP-tagged ZO-1 at 0, 1, 2 and 4 μg, 4 h, 4 °C; immunoblot; conditions: both partners purified
T1 construct: ZO-1, human cDNA cloned into pTriEx-GFP; last truncation ends at 1748; also called GFP-ZO-1; GFP-tagged ZO-1 (WT); source: HEK293T, transfected, in lysate; also purified from HEK293T (anti-GFP magnetic beads, glycine pH 2.5 elution)
T1 sequence (Q07157 whole entry, the tested form may be a part): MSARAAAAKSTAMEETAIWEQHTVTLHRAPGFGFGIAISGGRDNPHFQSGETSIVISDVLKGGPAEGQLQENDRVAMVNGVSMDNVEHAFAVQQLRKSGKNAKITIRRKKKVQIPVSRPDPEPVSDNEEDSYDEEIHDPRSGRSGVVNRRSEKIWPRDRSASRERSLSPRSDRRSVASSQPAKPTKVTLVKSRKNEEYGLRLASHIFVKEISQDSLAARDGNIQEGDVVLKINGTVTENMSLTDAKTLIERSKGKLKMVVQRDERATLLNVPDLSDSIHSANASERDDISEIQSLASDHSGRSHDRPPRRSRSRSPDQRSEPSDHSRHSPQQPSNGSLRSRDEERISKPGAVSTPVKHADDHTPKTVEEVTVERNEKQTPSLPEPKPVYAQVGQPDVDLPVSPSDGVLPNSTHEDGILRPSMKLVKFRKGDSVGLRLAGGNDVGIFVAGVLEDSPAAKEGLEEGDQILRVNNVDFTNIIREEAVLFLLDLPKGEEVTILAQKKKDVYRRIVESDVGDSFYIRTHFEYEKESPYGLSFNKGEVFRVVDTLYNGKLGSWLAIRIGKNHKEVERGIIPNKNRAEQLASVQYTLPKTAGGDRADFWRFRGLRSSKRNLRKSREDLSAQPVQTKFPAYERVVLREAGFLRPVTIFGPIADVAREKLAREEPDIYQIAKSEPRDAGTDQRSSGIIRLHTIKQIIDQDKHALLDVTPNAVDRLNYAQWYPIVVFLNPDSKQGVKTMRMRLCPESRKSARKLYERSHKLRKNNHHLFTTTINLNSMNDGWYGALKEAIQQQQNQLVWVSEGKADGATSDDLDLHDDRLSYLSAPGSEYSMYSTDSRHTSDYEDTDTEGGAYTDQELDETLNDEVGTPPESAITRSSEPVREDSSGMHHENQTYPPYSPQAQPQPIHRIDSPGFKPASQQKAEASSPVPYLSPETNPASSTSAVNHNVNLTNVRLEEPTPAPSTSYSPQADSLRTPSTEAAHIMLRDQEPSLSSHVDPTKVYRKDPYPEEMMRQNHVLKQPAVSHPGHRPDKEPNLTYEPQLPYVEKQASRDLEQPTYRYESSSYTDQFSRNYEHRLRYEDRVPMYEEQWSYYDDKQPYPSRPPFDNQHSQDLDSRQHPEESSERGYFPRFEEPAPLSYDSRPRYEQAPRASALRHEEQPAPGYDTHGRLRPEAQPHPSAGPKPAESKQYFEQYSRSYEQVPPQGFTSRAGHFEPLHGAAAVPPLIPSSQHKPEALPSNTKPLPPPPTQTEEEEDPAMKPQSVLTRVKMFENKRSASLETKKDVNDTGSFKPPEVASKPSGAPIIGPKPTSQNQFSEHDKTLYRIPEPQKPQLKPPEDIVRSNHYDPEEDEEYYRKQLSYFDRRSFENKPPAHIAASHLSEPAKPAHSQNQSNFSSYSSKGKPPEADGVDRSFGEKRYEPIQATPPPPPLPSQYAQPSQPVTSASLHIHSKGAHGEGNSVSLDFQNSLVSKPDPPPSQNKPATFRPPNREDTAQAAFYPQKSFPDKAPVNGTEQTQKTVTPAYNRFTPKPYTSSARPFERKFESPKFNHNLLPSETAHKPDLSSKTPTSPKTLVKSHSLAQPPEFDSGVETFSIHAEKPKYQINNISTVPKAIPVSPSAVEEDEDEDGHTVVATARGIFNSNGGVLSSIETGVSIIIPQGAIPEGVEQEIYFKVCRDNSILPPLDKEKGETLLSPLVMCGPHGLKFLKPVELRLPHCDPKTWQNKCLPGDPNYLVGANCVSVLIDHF

Molecule | binding against the reference (ZO-1) | binding result (GFP-tagged ZO-1)
PEAK1 (from UniProt Q9H792) FC-PEAK1 Y724F | weaker | 
B1 |  | binds
